Laboratory results published in paper PMC12572689, “Characterization of the Specific Binding Between Aptamers and Cytochrome c With Pressure‐Assisted Capillary Electrophoresis Frontal Analysis”.

B1: Apt76 (ssDNA)
DNA: ATCGATAAGCTTCCAGAGCCGTGTCTGGGGCCGACCGGCGCATTGGGTACGTTGTTGCCGTAGAATTCCTGCAGCC
B2: Apt61 (ssDNA)
DNA: AGTGTGAAATATCTAAACTAAATGTGGAGGGTGGGACGGGAAGAAGTTTATTTTTCACACT

Legend:
[1] = target: T1, cytochrome c (Equus caballus (equine heart), UniProt P00004 2-105); test: PACE-FA; mobility correction; n=1.10; 10 mM NH4OAc pH 6.8 (fluorescence: 2.0 uM cyt c, 2.0-14.0 uM aptamer, 30 min); PACE-FA: NH4OAc pH 6.8, HPC-coated capillary; temperature not stated; settings: protein: commercial; tags: none
T1 sequence (P00004 2-105): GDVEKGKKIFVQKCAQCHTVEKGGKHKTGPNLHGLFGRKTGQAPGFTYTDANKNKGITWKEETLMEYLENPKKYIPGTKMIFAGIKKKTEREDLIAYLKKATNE

[2] = target: T1, cytochrome c; test: PACE-FA; raw data, uncorrected; n=1.06; 10 mM NH4OAc pH 6.8 (fluorescence: 2.0 uM cyt c, 2.0-14.0 uM aptamer, 30 min); PACE-FA: NH4OAc pH 6.8, HPC-coated capillary; temperature not stated; settings: protein: commercial; tags: none
[3] = target: T1, cytochrome c; test: PACE-FA; specific binding fit; n=0.84; lambda 2.83e4 M-1; 10 mM NH4OAc pH 6.8 (fluorescence: 2.0 uM cyt c, 2.0-14.0 uM aptamer, 30 min); PACE-FA: NH4OAc pH 6.8, HPC-coated capillary; temperature not stated; settings: protein: commercial; tags: none
[4] = target: T1, cytochrome c; test: fluorescence titration; cyt c emission at 292 nm; Benesi-Hildebrand; 10 mM NH4OAc pH 6.8 (fluorescence: 2.0 uM cyt c, 2.0-14.0 uM aptamer, 30 min); PACE-FA: NH4OAc pH 6.8, HPC-coated capillary; temperature not stated; settings: protein: commercial, tags: none
[5] = target: T1, cytochrome c; test: PACE-FA; mobility correction; n=1.85; 10 mM NH4OAc pH 6.8 (fluorescence: 2.0 uM cyt c, 2.0-14.0 uM aptamer, 30 min); PACE-FA: NH4OAc pH 6.8, HPC-coated capillary; temperature not stated; settings: protein: commercial; tags: none; multi-loop structure (as claimed in text)
[6] = target: T1, cytochrome c; test: PACE-FA; raw data, uncorrected; n=2.05; 10 mM NH4OAc pH 6.8 (fluorescence: 2.0 uM cyt c, 2.0-14.0 uM aptamer, 30 min); PACE-FA: NH4OAc pH 6.8, HPC-coated capillary; temperature not stated; settings: protein: commercial; tags: none; multi-loop structure (as claimed in text)
[7] = target: T1, cytochrome c; test: PACE-FA; specific binding fit; n=1.25; lambda 6.90e4 M-1; 10 mM NH4OAc pH 6.8 (fluorescence: 2.0 uM cyt c, 2.0-14.0 uM aptamer, 30 min); PACE-FA: NH4OAc pH 6.8, HPC-coated capillary; temperature not stated; settings: protein: commercial; tags: none; multi-loop structure (as claimed in text)
[8] = target: T1, cytochrome c; test: PACE-FA; mobility correction; n=1.30; 10 mM NH4OAc pH 6.8 (fluorescence: 2.0 uM cyt c, 2.0-14.0 uM aptamer, 30 min); PACE-FA: NH4OAc pH 6.8, HPC-coated capillary; temperature not stated; settings: protein: commercial; tags: none
[9] = target: T1, cytochrome c; test: PACE-FA; raw data, uncorrected; n=1.47; 10 mM NH4OAc pH 6.8 (fluorescence: 2.0 uM cyt c, 2.0-14.0 uM aptamer, 30 min); PACE-FA: NH4OAc pH 6.8, HPC-coated capillary; temperature not stated; settings: protein: commercial; tags: none
[10] = target: T1, cytochrome c; test: PACE-FA; specific binding fit; n=1.22; lambda 7.11e3 M-1; 10 mM NH4OAc pH 6.8 (fluorescence: 2.0 uM cyt c, 2.0-14.0 uM aptamer, 30 min); PACE-FA: NH4OAc pH 6.8, HPC-coated capillary; temperature not stated; settings: protein: commercial; tags: none

Row | Binder | Ka [1] | Ka [2] | Ka [3] | Ka [4] | Ka [5] | Ka [6] | Ka [7] | Ka ([4]; multi-loop structure (as claimed in text)) | Ka [8] | Ka [9] | Ka [10]
1 | CCGTGTCTGGGGCCGACCGGCGCATTGGGTACGTTGTTGC (ssDNA) [Apt40] | 545000 M⁻¹ | 2.01e+06 M⁻¹ | 840000 M⁻¹ | 151000 M⁻¹ | – | – | – | – | – | – | –
2 | B1 | – | – | – | – | 676000 M⁻¹ | 1.65e+06 M⁻¹ | 1.53e+06 M⁻¹ | 868000 M⁻¹ | – | – | –
3 | B2 | – | – | – | 625000 M⁻¹ | – | – | – | – | 643000 M⁻¹ | 1.06e+06 M⁻¹ | 712000 M⁻¹
